Reference: paper PMC5993284, “Peptide inhibitors of the anaphase promoting-complex that cause sensitivity to microtubule poison” (PLoS ONE, 2018)
Values joined by “and” are separate entries in the source; they are usually repeats but may differ in a detail not shown here. Equal values may be shown once. Read-outs that look alike come from different tables or passages of the source. Ends that are not written are not given here.

Biological target: T1, APC/C^Cdc20 (Saccharomyces cerevisiae, UniProt P16522+P53886)
T1 construct: constructed within full-length Cdc20 by site-directed mutagenesis for analysis in vitro in the APC/C^Cdc20 assay; The APC/C was purified for enzyme assays from 1 mL of TAP-tagged Cdc16 yeast extract (SCSY51); made in house; host or cells: Cdc20: in vitro transcription/translation in rabbit reticulocyte lysate, used unpurified; APC/C: S. cerevisiae strain SCSY51 (Cdc16-TAP) extract, captured on IgG magnetic beads
Assay: biochemical
Format: biochemical
Settings: for inhibition of APC/C^Cdc20 activity (in words): 220 μM peptide, time course 0-60 minutes, vs buffer only, n = 3; for ubiquitinated Pds1 species at 60 minutes (in words): inhibitor at about 4-times the IC50, S2 Fig C
Protocol: Full-length, radio-labeled protein purifications were preformed as previously described. ^35S-Pds1 was prepared in a 500 μL IVT/T (In Vitro Transcription/Translation) reaction (Promega, USA), which contained 400 μL rabbit reticulocyte lysate, 20 μL of L-^35S-methionine (PerkinElmer, USA), 10 μg of plasmid DNA, and the remaining volume as nuclease-free ddH2O as recommended by the manufacturer. The reaction mixture was incubated for 2 hours at room temperature and gently mixed every 30 minutes. The reaction was added to pre-equilibrated IgG Sepharose beads (GE Healthcare, USA) in Bio-spin disposable chromatography columns (Bio-Rad, USA) for binding for 2 hours at room temperature. To ensure efficient binding, the beads were re-suspended several times every 30 minutes. After binding, the beads were washed with 5 mL wash buffer, containing 200 mM 4-(2-hydroxyethyl)-1-piperazineethanesulfonic acid (HEPES) at pH 8.0, 150 mM NaCl, 10% (v/v) glycerol, and 1 mM dithiothreitol (DTT). The ^35S-Pds1 was cleaved from the beads using TEV (Tobacco Etch Virus) protease in 1x TEV buffer (Invitrogen, USA) for 2 hours at room temperature, and the mixture was re-suspended several times every 30 minutes to promote efficient cleavage. The elution was collected and concentrated by employing an Amicon Ultra filter column (Millipore, Ireland). The concentrated ^35S-Pds1 was collected in a new tube, and stored at -20 °C.
The production of Cdc20 or Cdh1 was prepared by IVT/T reactions, where 16 μL of rabbit reticulocyte lysate, 20 μM L-methionine, 0.4 μg of plasmid DNA, and a volume of nuclease-free ddH2O for a total volume of 20 μL. This freshly synthesized Cdc20 or Cdh1 protein was used directly in all APC/C assays after a 1-hour synthesis reaction at room temperature. The APC/C was purified for enzyme assays from 1 mL of TAP-tagged Cdc16 yeast extract (SCSY51) where extract was mixed with 50 μL 50:50 slurry magnetic beads (Invitrogen, Norway) for 2 hours at 4 °C. After incubation, the beads were washed with 3 mL APC/C wash buffer (200 mM of HEPES, 150 mM of NaCl and 10% (v/v) of glycerol). APC/C bound to IgG magnetic beads was used directly in the enzyme assays.
APC/C assays were performed by adding the reaction contents in following order: 4.3 μL of QAH buffer, 20 μL of rabbit reticulocyte lysate containing Cdc20 or Cdh1 with or without an additional volume of recombinant checkpoint protein(s) or inhibitor peptides, 2.4 μL ubiquitin aldehyde (Boston Biochem, USA), APC/C, 16 μL pre-charged E1/E2/ATP/ubiquitin mix, and 13.3 μL of ^35S-Pds1 with QAH buffer (20 mM HEPES at pH 8.0, 100 mM NaCl, and 1 mM MgCl2). The E1/E2/ATP/ubiquitin mix were pre-charged by mixing 1 μL of E1 (Boston Biochem, USA), 1 μL of E2 (Boston Biochem, USA), 14.4 μL of ATP, 14.4 μL of […] (Boston Biochem, USA), and 17.2 μL of QAH buffer and incubated for 15 minutes at room temperature. Approximately 15 μL of samples were taken out at each time point, and the reaction was stopped by the addition of 2x protein sample buffer (125 mM Tris-HCl pH 6.8, 4% SDS, 20% glycerol, and 0.002% bromophenol blue, with 10% (final v/v) 2-mercaptoethanol added in fresh directly before use).
For inhibitor titration and time-course experiments, recombinant Bub3, Mad2, Mad3, and the Mad3-Bub3 complex were expressed and purified as previously described. […] For inhibition of APC/C the co-factor Cdc20 or Cdh1 was made fresh by IVT/T, and pure recombinant checkpoint proteins or inhibitor peptides were added to the IVT/T mixture and incubated for an additional hour at room temperature. In titrations, a dilution series of the checkpoint protein(s) were made before incubation with the Cdc20 co-factor. SDS-PAGE was performed using stand protocols (BioRad, USA).

[1] = MCC subunits, 4-parameter Hill fit, ± sd
[2] = MCC subunits, titration, 4-parameter Hill fit, ± sd from three independent titrations, 35S-Pds1 substrate, read-out: IC50

| Molecule | inhibition of APC/C^Cdc20 activity (in words) (35S-Pds1 substrate) | Hill coefficient [1] | IC50 [2] | also measured |
| --- | --- | --- | --- | --- |
| DS17: DS17 (Cdc20 197–212) peptide derived from the N-terminal portion of the DQ36 peptide (DMNKRILQYMPEPPKC; UniProt P26309 197-212, looked up, fragment) | no significant inhibition was observed | – | – | – |
| PL29: PL29 (Cdc20 167–196) that does not contain the KILR-motif (LPPPNASPISHLRAQTKIVFKQNVAEACGL; UniProt P26309 167-196, looked up, fragment) | displayed the ability to inhibit APC/C^Cdc20 activity | – | – | – |
| EV25: C-box containing peptide EV25 (Cdc20 134–158) (EVDEQFTVAADRYIPILQGASQNKV; UniProt P26309 134-158, looked up, fragment) | A significant level of APC/C^Cdc20 inhibition was observed only in the presence of the C-box2 peptide | – | – | – |
| C-box1: C-box containing peptide C-box1 (130–167) (TTSREVDEQFTVAADRYIPILQGASQNKVDPETLHEAL; UniProt P26309 130-167, looked up, fragment) | A significant level of APC/C^Cdc20 inhibition was observed only in the presence of the C-box2 peptide | – | – | – |
| MKVLDDWFSRKFSKAVHGNNHGTISLSTLSYIRVHKLVK [Tyc1] | – | – | – | IC50: ~50000 nM |
| DMNKRILQYMPEPPKCSSLRQKSYIMKKRTHYSYQQ [DQ36] | – | – | – | IC50: ~150000 nM; IC50 weaker than that of PQ65 (times) (ratio of IC50 relative to PQ65): about 3 times |
| AV16: C-box containing peptide AV16 (Cdc20 143–158) (ADRYIPILQGASQNKV; UniProt P26309 143-158, looked up, fragment) | A significant level of APC/C^Cdc20 inhibition was observed only in the presence of the C-box2 peptide | – | – | – |
| Mad2: pure recombinant MCC component Mad2 (protein) MSQSISLKGSTRTVTEFFEYSINSILYQRGVYPAEDFVTVKKYDLTLLKTHDDELKDYIRKILLQVHRWLLGGKCNQLVLCIVDKDEGEVVERWSFNVQHISGNSNGQDDVVDLNTTQSQIRALIRQITSSVTFLPELTKEGGYTFTVLAYTDADAKVPLEWADSNSKEIPDGEVVQFKTFSTNDHKVGAQVSYKY | yields a high level of inhibition | 2.4 ± 0.3 and 2.4 | 2300 ± 500 nM | ubiquitinated Pds1 species at 60 minutes (in words): the small amount of Pds1 that is ubiquitinated appears to be fully poly-ubiquitinated |
| Bub3: pure recombinant MCC component Bub3 (protein, UniProt P26449 1-341, looked up) Spindle assembly checkpoint …: MQIVQIEQAPKDYISDIKIIPSKSLLLITSWDGSLTVYKFDIQAKNVDLLQSLRYKHPLLCCNFIDNTDLQIYVGTVQGEILKVDLIGSPSFQALTNNEANLGICRICKYGDDKLIAASWDGLIEVIDPRNYGDGVIAVKNLNSNNTKVKNKIFTMDTNSSRLIVGMNNSQVQWFRLPLCEDDNGTIEESGLKYQIRDVALLPKEQEGYACSSIDGRVAVEFFDDQGDDYNSSKRFAFRCHRLNLKDTNLAYPVNSIEFSPRHKFLYTAGSDGIISCWNLQTRKKIKNFAKFNEDSVVKIACSDNILCLATSDDTFKTNAAIDQTIELNASSIYIIFDYEN | – | 2.2 ± 0.4 and 2.2 | 8700 ± 2400 nM | – |
| Mad3: pure recombinant MCC component Mad3 (protein, UniProt P47074 1-515, looked up) Spindle assembly checkpoint …: MKAYAKKRISYMPSSPSQNVINFEEIETQKENILPLKEGRSAAALSKAIHQPLVEINQVKSSFEQRLIDELPALSDPITLYLEYIKWLNNAYPQGGNSKQSGMLTLLERCLSHLKDLERYRNDVRFLKIWFWYIELFTRNSFMESRDIFMYMLRNGIGSELASFYEEFTNLLIQKEKFQYAVKILQLGIKNKARPNKVLEDRLNHLLRELGENNIQLGNEISMDSLESTVLGKTRSEFVNRLELANQNGTSSDVNLTKNNVFVDGEESDVELFETPNRGVYRDGWENFDLKAERNKENNLRISLLEANTNLGELKQHEMLSQKKRPYDEKLPIFRDSIGRSDPVYQMINTKDQKPEKIDCNFKLIYCEDEESKGGRLEFSLEEVLAISRNVYKRVRTNRKHPREANLGQEESANQKEAEAQSKRPKISRKALVSKSLTPSNQGRMFSGEEYINCPMTPKGRSTETSDIISAVKPRQLTPILEMRESNSFSQSKNSEIISDDDKSSSSFISYPPQR | – | 5.0 ± 0.9 and 5.0 | 240 ± 10 nM | – |
| Mad3-Bub3 complex: recombinant Mad3-Bub3 complex (protein, UniProt P47074 1-515; P26449 1-341, looked up) Spindle assembly checkpoint … 1: MKAYAKKRISYMPSSPSQNVINFEEIETQKENILPLKEGRSAAALSKAIHQPLVEINQVKSSFEQRLIDELPALSDPITLYLEYIKWLNNAYPQGGNSKQSGMLTLLERCLSHLKDLERYRNDVRFLKIWFWYIELFTRNSFMESRDIFMYMLRNGIGSELASFYEEFTNLLIQKEKFQYAVKILQLGIKNKARPNKVLEDRLNHLLRELGENNIQLGNEISMDSLESTVLGKTRSEFVNRLELANQNGTSSDVNLTKNNVFVDGEESDVELFETPNRGVYRDGWENFDLKAERNKENNLRISLLEANTNLGELKQHEMLSQKKRPYDEKLPIFRDSIGRSDPVYQMINTKDQKPEKIDCNFKLIYCEDEESKGGRLEFSLEEVLAISRNVYKRVRTNRKHPREANLGQEESANQKEAEAQSKRPKISRKALVSKSLTPSNQGRMFSGEEYINCPMTPKGRSTETSDIISAVKPRQLTPILEMRESNSFSQSKNSEIISDDDKSSSSFISYPPQR Spindle assembly checkpoint … 2: MQIVQIEQAPKDYISDIKIIPSKSLLLITSWDGSLTVYKFDIQAKNVDLLQSLRYKHPLLCCNFIDNTDLQIYVGTVQGEILKVDLIGSPSFQALTNNEANLGICRICKYGDDKLIAASWDGLIEVIDPRNYGDGVIAVKNLNSNNTKVKNKIFTMDTNSSRLIVGMNNSQVQWFRLPLCEDDNGTIEESGLKYQIRDVALLPKEQEGYACSSIDGRVAVEFFDDQGDDYNSSKRFAFRCHRLNLKDTNLAYPVNSIEFSPRHKFLYTAGSDGIISCWNLQTRKKIKNFAKFNEDSVVKIACSDNILCLATSDDTFKTNAAIDQTIELNASSIYIIFDYEN | – | 7.3 ± 2.6 | 89 ± 4 nM | Hill coefficient (MCC subunits, 4-parameter Hill fit, ± sd, listed as Mad3-Bub3): 7.3; Hill coefficient (Mad3-Bub3 complex in the presence of 0.5 μM Mad2, ± sd): 8.2 ±1.9; IC50 (Mad3-Bub3 complex in the presence of 0.5 μM Mad2, ± sd, three independent titrations, read-out: IC50): 70 ± 3 nM; ubiquitinated Pds1 species at 60 minutes (in words): the Pds1 accumulated in these lower molecular weight species |
